In patent US20180355035A1 (STCUBE, published 2018):

Key:
[1] = molecular target: T1, human BTN1A1 extracellular domain tagged with human IgG1 Fc (human, UniProt Q13410 27-242); test: BLI (Octet), antibody loaded on sensor, single analyte concentration, 1:1 fit; column headed 'kd (1/Ms)'
T1 construct: also called hBTN1A1-Fc; BTN1A1-Fc; not shown: human IgG1 Fc region
T1 chain: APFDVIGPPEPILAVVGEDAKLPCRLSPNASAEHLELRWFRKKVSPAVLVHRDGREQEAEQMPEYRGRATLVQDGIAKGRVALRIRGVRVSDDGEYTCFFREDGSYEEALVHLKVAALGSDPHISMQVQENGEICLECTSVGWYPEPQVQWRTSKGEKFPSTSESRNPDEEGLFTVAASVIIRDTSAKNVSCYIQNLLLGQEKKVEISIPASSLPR
Method: (§1) The KD value of STC810 was also determined in an octet assay. […] Baseline was established in PBS containing 1 mg/ml bovine serum albumin (assay buffer), the association step was performed by submerging the sensors in a single concentration of analyte in assay buffer. Dissociation was performed and monitored in fresh assay buffer. All experiments were performed with sensor shaking at 1,000 rpm. ForteBio's data analysis software was used to fit the data to a 1:1 binding model to extract an association rate and dissociation rate. The KD value was calculated using the ratio kd/ka. In a typical epitope binning assay, antigen BTN1A1-Fc (10 nM) was preincubated with the second antibody (10 nM) for 1 h at room temperature. Control antibody (20 nM) was loaded onto AMC sensors (ForteBio) and remaining Fc-binding sites on the sensor were blocked with a whole mouse IgG antibody (Jackson ImmunoResearch). The sensors were exposed to preinculated antigen-second antibody mixture. Raw data was processed using ForteBio's Data Analysis Software 7.0 and the antibody pairs were assessed for competitive binding. Additional binding by the second antibody indicates an unoccupied epitope (non-competitor), while no binding indicates epitope blocking (competitor).

[2] = molecular target: T1, human BTN1A1 extracellular domain …; test: SPR (Biacore), STC810 captured on Protein A chip, BTN1A1-ECD-Fc injected; column headed 'ka (1/s)'
Method: (§2) FIG. 11—Surface plasmon resonance analysis of BTN1A1-Fc and BTN1A1-His binding to immobilized STC810 MAb. FIG. 11A: Sensorgrams showing real-time binding of soluble BTN1A1-Fc protein (2-64 nM with 2-fold dilution) to STC810 immobilized on a Protein A-CM5 chip. Flow cells without any immobilized protein were used as the controls for non-specific binding and were subtracted from the presented data. FIG. 11B: Sensorgrams showing real-time binding of soluble BTN1A1-His protein (2-64 nM with 4-fold dilution) to STC810 immobilized on a Protein A-CM5 chip.
(§3) In a Biacore assay, the binding affinity between BTN1A1 and monoclonal anti-BTN1A1 antibody STC810 was measured by Surface Plasmon Resonance. Sensorgram and saturation curve of the titration of antibody by BTN1A1-ECD tagged with 6×His or human IgG1 Fc. The protein A chip (BIAcore) was coated with antibody with 600 response units (RU) and the BTN1A1 ECD was injected in the microfluidic channel. The KD values were obtained using the fitting tool of the BIAevaluation software (BIAcore). FIG. 11 provides sensorgrams showing real-time binding of soluble BTN1A1-Fc protein (2-64 nM with 2-fold dilution; FIG. 11A) or soluble BTN1A1-His protein (2-64 nM with 4-fold dilution; FIG. 11B) to STC810 immobilized on a Protein A-CM5 chip. […]

[3] = molecular target: T2, wild-type human BTN1A1 expressed in HEK293T cells (human, UniProt Q13410 27-526, fully glycosylated, as the filing says); test: FACS on 293T cells overexpressing BTN1A1 WT or 2NQ, FITC secondary antibody
T2 construct: in whole-cell lysates in the Western blot; also called BTN1A1 WT; human BTN1A1 WT; not shown: C-terminal flag tag
T2 sequence: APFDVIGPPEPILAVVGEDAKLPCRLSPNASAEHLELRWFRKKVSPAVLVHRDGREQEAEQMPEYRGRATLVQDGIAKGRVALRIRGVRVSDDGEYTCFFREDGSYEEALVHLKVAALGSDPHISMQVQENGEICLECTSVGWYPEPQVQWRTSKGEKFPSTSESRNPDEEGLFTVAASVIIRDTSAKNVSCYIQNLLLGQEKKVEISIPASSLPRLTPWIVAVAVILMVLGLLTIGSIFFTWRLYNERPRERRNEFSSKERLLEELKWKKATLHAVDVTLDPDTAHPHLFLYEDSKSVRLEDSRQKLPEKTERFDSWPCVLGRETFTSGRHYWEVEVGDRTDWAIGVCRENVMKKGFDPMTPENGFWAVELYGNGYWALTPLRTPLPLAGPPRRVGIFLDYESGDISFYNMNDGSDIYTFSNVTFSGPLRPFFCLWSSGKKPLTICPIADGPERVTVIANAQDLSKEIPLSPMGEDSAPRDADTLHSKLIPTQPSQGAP
Method: FIG. 10—FACS analysis of mouse anti-human BTN1A1 monoclonal antibodies. Human BTN1A1-2NQ (i.e. N55Q and N215Q) and human BTN1A1 WT were expressed in HEK293T cells by transient transfection. The surface expression of hBTN1A1 was measured by FACS analysis with anti-BTN1A1 monoclonal antibodies designated as STC702, STC810, STC819, STC820, STC821, STC822, STC838, and STC839. Anti-BTN1A1 polyclonal antibodies were used as a positive control.
The glyco-specificity of monoclonal anti-BTN1A1 antibodies was characterized by dot blot analysis. Each anti-BTN1A1 mAb (0.5 μg/well loaded) was tested for binding to glycosylated BTN1A1 (PNGaseF “−”) or deglycosylated BTN1A1 (PNGaseF “+”). Non-specific antibody controls (“IgG,” 0.25 μg/well loaded) was also included in the assay. As shown in FIGS. 9A-9B, both glycosylated BTN1A1 protein and non-glycosylated BTN1A1 (BTN1A1 protein treated with PNGase F) were coated on the solid phase and tested for mAbs and antigens binding affinity. […] The glyco-specificity of monoclonal anti-BTN1A1 antibodies was also characterized by FACS analysis. […] After washing, fluorescence intensity (MFI) was measured to assess relative binding of antibodies to membrane bound glycosylated or unglycosylated BTN1A1. […]

[4] = molecular target: T1, human BTN1A1 extracellular domain …; test: BLI (Octet), antibody loaded on sensor, single analyte concentration, 1:1 fit
Method: as §1

[5] = molecular target: T1, human BTN1A1 extracellular domain …; test: BLI (Octet), antibody loaded on sensor, single analyte concentration, 1:1 fit; column headed 'ka (1/s)'
Method: as §1

[6] = molecular target: T1, human BTN1A1 extracellular domain …; test: SPR (Biacore), STC810 captured on Protein A chip, BTN1A1-ECD-Fc injected
Method: as §2, §3

mBTNA1A-FC = molecular target: T3, mBTNA1A-FC (Mus musculus, UniProt Q62556); test: dot blot (layout FIG. 9B), lanes 5-8 mBTNA1A-FC = mouse BTN1A1-Fc, untreated and PNGase F treated
T3 construct: antigen of lanes 5-8 of the dot blot, used untreated and PNGase F treated; the sheet prints mBTNA1A-FC; also called mouse BTN1A1-Fc; mouse BTN1A1 tagged with human IgG1 Fc region
T3 sequence (Fc fusion chain, looked up): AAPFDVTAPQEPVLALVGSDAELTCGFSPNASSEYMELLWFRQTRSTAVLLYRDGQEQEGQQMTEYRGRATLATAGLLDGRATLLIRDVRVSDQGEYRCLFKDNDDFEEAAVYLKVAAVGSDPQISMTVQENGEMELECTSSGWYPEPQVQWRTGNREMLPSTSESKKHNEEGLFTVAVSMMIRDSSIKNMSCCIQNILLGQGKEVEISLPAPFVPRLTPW
Method: FIG. 9—Dot blot analysis of mouse anti-human BTN1A1 antibodies. […] Antigen BTN1A1-ECD tagged with 6×His was treated with PNGase F to remove N-glycosylation. Polyclonal antibodies were used for positive control. To test the species specificity of BTN1A1, human and mouse BTN1A1 tagged with human IgG1 Fc region was used (lane 1-4 with human BTN1A1-Fc and lane 5-8 with mouse BTN1A1-Fc). The term “ECD” stands for extracellular domain.
The glyco-specificity of monoclonal anti-BTN1A1 antibodies was characterized by dot blot analysis. Each anti-BTN1A1 mAb (0.5 μg/well loaded) was tested for binding to glycosylated BTN1A1 (PNGaseF “−”) or deglycosylated BTN1A1 (PNGaseF “+”). Non-specific antibody controls (“IgG,” 0.25 μg/well loaded) was also included in the assay. As shown in FIGS. 9A-9B, both glycosylated BTN1A1 protein and non-glycosylated BTN1A1 (BTN1A1 protein treated with PNGase F) were coated on the solid phase and tested for mAbs and antigens binding affinity. […] The glyco-specificity of monoclonal anti-BTN1A1 antibodies was also characterized by FACS analysis. […] After washing, fluorescence intensity (MFI) was measured to assess relative binding of antibodies to membrane bound glycosylated or unglycosylated BTN1A1.

[7] = molecular target: T4, hBTN1A1 overexpressed in PC3 prostate cancer cells (human, UniProt Q13410 27-526); test: cell-based or functional assay
T4 sequence: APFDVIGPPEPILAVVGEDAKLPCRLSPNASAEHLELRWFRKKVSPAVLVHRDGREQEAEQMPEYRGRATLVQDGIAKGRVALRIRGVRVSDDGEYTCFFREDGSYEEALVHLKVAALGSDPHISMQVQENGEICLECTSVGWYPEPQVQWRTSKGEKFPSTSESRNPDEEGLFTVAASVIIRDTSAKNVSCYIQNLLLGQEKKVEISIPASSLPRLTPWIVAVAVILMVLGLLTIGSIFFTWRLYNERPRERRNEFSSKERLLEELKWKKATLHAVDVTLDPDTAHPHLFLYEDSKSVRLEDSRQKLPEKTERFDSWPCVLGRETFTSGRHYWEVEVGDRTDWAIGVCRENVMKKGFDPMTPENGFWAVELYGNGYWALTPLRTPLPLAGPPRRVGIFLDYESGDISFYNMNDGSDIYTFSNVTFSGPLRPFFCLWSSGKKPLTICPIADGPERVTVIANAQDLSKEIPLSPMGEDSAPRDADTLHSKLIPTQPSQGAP

[8] = molecular target: T5, human BTN1A1 extracellular domain tagged with 6xHis (human, UniProt Q13410 27-242, N-glycosylated (removed by PNGase F in the deglycosylated control)); test: SPR (Biacore), STC810 captured on Protein A chip, BTN1A1-ECD-His injected
T5 construct: also called hBTN1A1-His; BTN1A1-His
T5 chain: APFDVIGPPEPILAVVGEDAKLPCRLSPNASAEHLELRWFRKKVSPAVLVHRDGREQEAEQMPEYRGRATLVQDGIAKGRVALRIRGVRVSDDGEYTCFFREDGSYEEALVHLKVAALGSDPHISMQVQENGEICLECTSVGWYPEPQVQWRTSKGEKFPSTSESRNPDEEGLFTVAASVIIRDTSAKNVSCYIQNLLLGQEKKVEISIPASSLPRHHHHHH
Method: as §2, §3

[9] = molecular target: T5, human BTN1A1 extracellular domain …; test: SPR (Biacore), STC810 captured on Protein A chip, BTN1A1-ECD-His injected; column headed 'ka (1/s)'
Method: as §2, §3

[10] = molecular target: T1, human BTN1A1 extracellular domain …; test: SPR (Biacore), STC810 captured on Protein A chip, BTN1A1-ECD-Fc injected; column headed 'kd (1/Ms)'
Method: as §2, §3

[11] = molecular target: T5, human BTN1A1 extracellular domain …; test: SPR (Biacore), STC810 captured on Protein A chip, BTN1A1-ECD-His injected; column headed 'kd (1/Ms)'
Method: as §2, §3

B1: mouse monoclonal anti-human BTN1A1 antibody STC810 (antibody, V domains shown)
VH: EVQLQQSGPELVKPGASVKISCKASGYTFTHYNMDWVKQSHGKSLEWIGYIYPSNGGTGYNQKFKSRATLTVDKSSSTAYMELHSLTSEDSAVYYCARGAYHYGSSYAYWYFDVWGAGTTVTVSS
VL: DIQMTQTTSSLSASLGDRVTISCSASQDISNYLNWYQQKPDETVKLLISYTSSLHSGVPSRFSGSGSGTDYSLTISNLAPEDIATYYCQQSSKLPFTFGSGTELEIKR
notes: also called STC838; STC810 MAb
kon [1]: 145000 M⁻¹ s⁻¹ | koff [2]: 0.00018 s⁻¹ | fold MFI on glycosylated BTN1A1 (WT) over unglycosylated BTN1A1 (2NQ) [3]: 5 fold | Kd [4]: 2.12 nM | koff [5]: 0.000309 s⁻¹ | Kd [6]: 1.81 nM | binding result (mBTNA1A-FC): no binding (tested: 0.5 µg/well) | relative apoptosis of PC3 cells at 120 h (caspase 3/7), with activated T cells, 50 µg/ml STC810 [7]: 2 fold | Kd [8]: 14.9 nM | koff [9]: 0.00402 s⁻¹ | kon [10]: 98900 M⁻¹ s⁻¹ | kon [11]: 269000 M⁻¹ s⁻¹
